Test results as given in patent US11028159B2 (priority 2017, dated 2021).

Tested on: venoms of different snake species
Type: binding

B1: VHH candidate against cobrotoxin: camelid (llama) single-domain VHH antibody binding cobrotoxin, SEQ ID NO 4 (protein)
VHH: MAQVQLQESGGGLAQAGGSLRLSCSASRNIFRVYGWYRQAPGKQREWVASITRDDSTAYADSVKGRFTISRDSAKNTMYLQMSSLRLEDTSTYYCAAQSISGTIQWGQGTQVTVSSTSGPGGQHHHHHHGAEQKLISEEDLS
number of venoms of different snake species bound (ELISA): at least 6
